Target: the molecule itself
Assay: SDS-PAGE of unboiled samples

B1: unencapsulated (naked) DypB (Rv0799c) purified from E. coli (enzyme)
chain: MAVPAVSPQPILAPLTPAAIFLVATIGADGEATVHDALSKISGLVRAIGFRDPTKHLSVVVSIGSDAWDRLFAGPRPTELHPFVELTGPRHTAPATPGDLLFHIRAETMDVCFELAGRILKSMGDAVTVVDEVHGFRFFDNRDLLGFVDGTENPSGPIAIKATTIGDEDRNFAGSCYVHVQKYVHDMASWESLSVTEQERVIGRTKLDDIELDDNAKPANSHVALNVITDDDGTERKIVRHNMPFGEVGKGEYGTYFIGYSRTPTVTEQMLRNMFLGDPAGNTDRVLDFSTAVTGGLFFSPTIDFLDHPPPLPQAATPTLAAGSLSIGSLKGSPR
**Q.** For B1, which “stoichiometry N” value is on record?
**A.** Its value is 4.

Source: article doi:10.1101/2020.08.31.276014 (bioRxiv, 2020)
